{
  "source": "paper PMC6107290",
  "about": "(PLoS Pathogens, 2018)",
  "biological_target": "the molecule itself",
  "test": "cryo-EM structure",
  "data": [
    {"protein": "SARS-CoV S glycoprotein S2 subunit (from trypsin cleavage of the S ectodomain) (domain or fragment) STSQKSIVAYTMSLGADSSIAYSNNTIAIPTNFSISITTEVMPVSMAKTSVDCNMYICGDSTECANLLLQYGSFCTQLNRALSGIAAEQDRNTREVFAQVKQMYKTPTLKYFGGFNFSQILPDPLKPTKRSFIEDLLFNKVTLADAGFMKQYGECLGDINARDLICAQKFNGLTVLPPLLTDDMIAAYTAALVSGTATAGWTFGAGAALQIPFAMQMAYRFNGIGVTQNVLYENQKQIANQFNKAISQIQESLTTTSTALGKLQDVVNQNAQALNTLVKQLSSNFGAISSVLNDILSRLDKVEAEVQIDRLITGRLQSLQTYVTQQLIRAAEIRASANLAATKMSECVLGQSKRVDFCGKGYHLMSFPQAAPHGVVFLHVTYVPSQERNFTTAPAICHEGKAYFPREGVFVFNGTSWFITQRNFFSPQIITTDNTFVSGNCDVVIGIINNTVYDPLQPELDSFKEELDKYFKNHTSPDVDLGDISGINASVVNIQKEIDRLNEVAKNLNESLIDLQELGKYEQYIKWP", "values": [
      {"measurement": "stoichiometry N", "value": 3}
    ]}
  ]
}
